Experimental findings from patent US20100077492A1 are described below.

The assay has as its target human PC4 protein (full length wild type) (human) (UniProt P53999). The assay is described as follows: cell-based or functional assay.

For the substance “purified human XPG (without HMK tag) (from UniProt P28715 1-1186) (enzyme)”, the PC4 binding to a 10-nt DNA bubble substrate in an electrophoretic mobility shift assay after pre-incubation of the DNA with XPG worked out at 44 nM.
